As usually defined, the Km is the substrate concentration at which the rate is half of its maximum. One may read the kcat as the maximal rate divided by the concentration of active sites.

This passage reports Km and kcat results from PMC4949257, “Three CoA Transferases Involved in the Production of Short Chain Fatty Acids in Porphyromonas gingivalis” (Frontiers in Microbiology, 2016).

Substrate in the data set “purified protein”: CC(=O)O
The experiment in a line: purified protein. The settings on record: co-substrate butyryl-CoA, 40 mM potassium phosphate pH 8.0, ternary-complex mechanism.

Substrate in data set [1]: CCCC(=O)SCCNC(=O)CCNC(=O)[C@H](O)C(C)(C)COP(=O)(O)OP(=O)(O)OC[C@H]1O[C@@H](n2cnc3c(N)ncnc32)[C@H](O)[C@@H]1OP(=O)(O)O
Put plainly: acetyl-CoA formation, citrate synthase/DTNB A412, secondary plots. The data set is classed as biochemical, Porphyromonas gingivalis. The settings on record: co-substrate sodium acetate, 40 mM potassium phosphate pH 8.0, ternary-complex mechanism. The text has this:
acetyl-CoA formation, citrate synthase/DTNB A412, secondary plots on PGN_1341

Substrate in data set [2]: CCC(=O)SCCNC(=O)CCNC(=O)[C@H](O)C(C)(C)COP(=O)(O)OP(=O)(O)OC[C@H]1O[C@@H](n2cnc3c(N)ncnc32)[C@H](O)[C@@H]1OP(=O)(O)O
The description is as above. The data set is classed as biochemical, Porphyromonas gingivalis. The settings on record: co-substrate sodium acetate, 40 mM potassium phosphate pH 8.0, ternary-complex mechanism. From the text:
(§1) acetyl-CoA formation, citrate synthase/DTNB A412, secondary plots on PGN_0725

Substrate in data set [3]: CCCC(=O)SCCNC(=O)CCNC(=O)[C@H](O)C(C)(C)COP(=O)(O)OP(=O)(O)OC[C@H]1O[C@@H](n2cnc3c(N)ncnc32)[C@H](O)[C@@H]1OP(=O)(O)O
The data set is described as above. In kind it is biochemical, Porphyromonas gingivalis. The settings on record: co-substrate sodium acetate, 40 mM potassium phosphate pH 8.0, ternary-complex mechanism.
Excerpt: as §1
The source holds these as a separate data set.

Substrate in data set [4]: CCC(=O)SCCNC(=O)CCNC(=O)[C@H](O)C(C)(C)COP(=O)(O)OP(=O)(O)OC[C@H]1O[C@@H](n2cnc3c(N)ncnc32)[C@H](O)[C@@H]1OP(=O)(O)O
The data set is described as above. The settings on record: co-substrate sodium acetate, 40 mM potassium phosphate pH 8.0, ternary-complex mechanism. The data set is classed as biochemical, Porphyromonas gingivalis. From the text: (§2) acetyl-CoA formation, citrate synthase/DTNB A412, secondary plots on PGN_1888
This is another data set of the same source.

Substrate in data set [5]: CCCC(=O)SCCNC(=O)CCNC(=O)[C@H](O)C(C)(C)COP(=O)(O)OP(=O)(O)OC[C@H]1O[C@@H](n2cnc3c(N)ncnc32)[C@H](O)[C@@H]1OP(=O)(O)O
The data set is described as above. In kind it is biochemical, Porphyromonas gingivalis. The following applies: co-substrate sodium acetate, 40 mM potassium phosphate pH 8.0, ternary-complex mechanism.
Excerpt: as §2
The source holds these as a separate data set.

B1: PGN_1341 (Porphyromonas gingivalis ATCC 33277) (protein)
chain: MALRFITAEEAAEFVHHNDNVGFSGFTPAGNPKVVPAAIAKRAIAEHEKGNPFKIGMFTGASTGARLDGVLAQADAVKFRTPYQSNKDLRNLINNGSTSYFDLHLSTLAQDLRYGFYGKVDVAIIEVADVTEDGKILPTTGVGILPTICRLADRIIVELNDKHPKEIMGMHDLCEPLDPPARRELPVYTPSDRIGKPYVQVDPAKIVGVVRTSEPNDESDFAPLDPVTQAIGDNVAAFLVSEMKAGRIPKDFLPLQSGVGNVANAVLGALGDNPDIPAFNMYTEVIQDAVIALMKKGRIKFASGCSLSVSRSVIQDIYANLDFFKDKILLRPQEYSNNPEIVRRLGVITINTALEADIFGNINSTHVSGTRMMNGIGGSGDFTRNSYVSIFTTPSVMKDGKISSFVPMVAHHDHSEHSVKVIISEWGVADLRGKNPRERAHEIIDKCVHPDYRPLLRQYLELGVKGQTPQNLDCCFAFHQELAKSGDMRNVRWEDYMK
notes: recombinant full-length, pGEX-6P-1 (GST vector) in E. coli; 498 aa
Regarding B1, the Km is 26000 ± 2800 µM in the data set “purified protein” and 610 ± 40 µM in data set [1]. Moreover, the kcat (in “purified protein”; in data set [1]) was 24 ± 0.3 s⁻¹ each time.

B2: PGN_0725 (Porphyromonas gingivalis ATCC 33277) (protein)
chain: MKDVLAEYASRIVSAEEAVKHIKNGERVALSHAAGVPQSCVDALVQQADLFQNVEIYHMLCLGEGKYMAPEMAPHFRHITNFVGGNSRKAVEENRADFIPVFFYEVPSMIRKDILHIDVAIVQLSMPDENGYCSFGVSCDYSKPAAESAHLVIGEINRQMPYVHGDNLIHISKLDYIVMADYPIYSLAKPKIGEVEEAIGRNCAELIEDGATLQLGIGAIPDAALLFLKDKKDLGIHTEMFSDGVVELVRSGVITGKKKTLHPGKMVATFLMGSEDVYHFIDKNPDVELYPVDYVNDPRVIAQNDNMVSINSCIEIDLMGQVVSECIGSKQFSGTGGQVDYVRGASWSKNGKSIMAIPSTAKNGTASRIVPIIAEGAAVTTLRNEVDYVVTEYGIAQLKGKSLRQRAEALIAIAHPDFREELTEHLRKRFG
notes: recombinant full-length, pGEX-6P-1 (GST vector) in E. coli; 431 aa
As to B2, the Km in the data set “purified protein” is 16000 ± 1800 µM; in data set [2] it was 108 ± 47 µM; in data set [3], 520 ± 10 µM. The kcat in “purified protein” amounted to 560 ± 4.1 s⁻¹; in data set [2], 533 ± 31 s⁻¹; in data set [3], 560 ± 4.1 s⁻¹.

B3: PGN_1888 (Porphyromonas gingivalis ATCC 33277) (protein)
chain: MQWQELYRQRVCSADEAVVDSLKPGTKVVFGHAAAAPVRFSQAMYRQRERLENITVFHMLYFGDAPHLAPEMRSHVHPTLNFLEGNSRPASRDRRVDFIPCHFHEVPELFRQGFFPLDVAVVQVSTPNEEGYCSFGVSCDYTKAAAECAPVVVAEVNKQMPFIGGENLIHISNLTHIIEVDEPIAEVLPPAISDLELRIGQNCASLIKDGDTLQLGIGGIPDAVLRALEGHKDLGIHTEMFTDGVMRMIRKGIINGKKKTLHPEKVVTSLIFGSKELYDFVNNNPVIECYPVDYINNPDVIGKNDRMVSINSCLEMDLMGQAASESIGYEQFSGSGGQVDFLRGAKRSKGGISIMAFPSTAKKGTESRIVPILKEGACVTTGRNEVDYVVTEYGVARLRGATLRQRAEALTAIAHPDFRPALEEEIRRRFE
notes: as for B2
As for B3, the figures for the Km (in “purified protein”; in data set [4]; in data set [5]) were 33000 ± 5300 µM, 23 ± 4.4 µM and 920 ± 70 µM, respectively. Further, the catalytic constant (kcat) in “purified protein” came out at 254 ± 10 s⁻¹; in data set [4], 1374 ± 477 s⁻¹; in data set [5] it was 254 ± 10 s⁻¹.
